Experiment: Enzyme activity after freeze-drying with stabilisers
Type: physicochemical
Details: freeze-dried with different stabilisers, compared with non-freeze-dried standard
Protocol: FIG. 23A: RcArgZ activity levels after freeze-drying with different additives. RcArgZ was purified and exchanged into the freeze-drying buffers. The buffers contained 50 mM Tris-Cl pH 8.0, 1 mM MgCl2, and one of the stabilisers. The stabilisers were the following: 1 mM mannitol, 40 mg/mL mannitol, 1 mM sucrose, 10 mg/mL sucrose, 1 mM trehalose, 20 mg/mL trehalose, or 20 mg/mL sucrose and 40 mg/mL mannitol. The sample was then snap frozen using liquid nitrogen before putting in a benchtop freeze-dryer. The sample was left drying for 18-24 hours. The activity of the freeze-dried enzymes was tested and compared with the non-freeze-dried standard (in their corresponding storage buffer).
FIG. 23B: HpGS activity levels after freeze-drying with different additives. HpGS was purified and buffer exchanged to the freeze-drying buffers. The buffers contained 50 mM Tris-Cl pH 8.0, 1 mM MgCl2, and the stabilisers. The stabilisers were the following: 1 mM mannitol, 40 mg/mL mannitol, 1 mM sucrose, 10 mg/mL sucrose, 1 mM trehalose, 20 mg/mL trehalose, or 20 mg/mL sucrose and 40 mg/mL mannitol. The sample was then snap frozen using liquid nitrogen before putting in a benchtop freeze-dryer. The sample was left drying for 18-24 hours. The activity of the freeze-dried enzymes was tested and compared with the non-freeze-dried standard (in their corresponding storage buffer). […]

B1: BpsA: Streptomyces lavendulae blue pigment synthetase A, converts glutamine to indigoidine, SEQ ID NO: 1 (protein, UniProt Q1MWN4 1-1282, looked up)
Indigoidine synthase: MTLQETSVLEPTLQGTTTLPGLLAQRVAEHPEAIAVAYRDDKLTFRELASRSAALADYLEHLGVSADDCVGLFVEPSIDLMVGAWGILNAGAAYLPLSPEYPEDRLRYMIENSETKIILAQQRLVSRLRELAPKDVTIVTLRESEAFVRPEGTEAPAARSARPDTLAYVIYTSGSTGKPKGVMIEHRSIVNQLGWLRETYAIDRSKVILQKTPMSFDAAQWEILSPANGATVVMGAPGVYADPEGLIETIVKHNVTTLQCVPTLLQGLIDTEKFPECVSLQQIFSGGEALSRLLAIQTTQEMPGRALINVYGPTETTINSSSFPVDPADLDEGPQSISIGSPVHGTTYHILDKETLKPVGVGEIGELYIGGIQLARGYLHRDDLTAERFLEIELEEGAEPVRLYKTGDLGQWNNDGTVQFAGRADNQVKLRGYRVELDEISLAIENHDWVRNAAVIVKNDGRTGFQNLIACIELSEKEAALMDQGNHGSHHASKKSKLQVKAQLSNPGLRDDAELAARPAFDLEGAEPTPEQRARVFARKTYRFYEGGAVTQADLLGLLGATVTAGYSRKAADLAPAELGQILRWFGQYISEERLLPKYGYASPGALYATQMYFELEGVGGLKPGYYYYQPVRHQLVLISEREATGKATAQIHFIGKKSGIEPVYKNNILEVLEIETGHMVGLFEQILPAYGLDIHDRAYEPAVKDLLDVADEDYYLGTFELVPHAGARDDQAEVYVQTHGGKVAGLPEGQYRYENGELTRFSDDIVLKKHVIAINQSVYQAASFGISVYSRAEEEWLKYITLGKKLQHLMMNGLNLGFMSSGYSSKTGNPLPASRRMDAVLGANGVDSAPMYFFVGGRISDEQIGHEGMREDSVHMRGPAELIRDDLVSFLPDYMIPNRVVVFDRLPLSANGKIDVKALAASDQVNAELVERPFVAPRTETEKEIAAVWEKALRRENASVQDDFFESGGNSLIAVGLVRELNARLGVSLPLQSVLESPTIEKLARRLEREVAQESSRFVRLHAETGKARPVICWPGLGGYPMNLRSLAGEIGLGRSFYGVQSYGINEGETPYETITEMAKKDIEALKEIQPAGPYTLWGYSFGARVAFETAYQLEQAGEKVDNLFLIAPGSPKVRAENGKVWGREASFANRGYTTILFSVFTGTISGPDLDRCLETVTDEASFAEFISELKGIDVDLARRIISVVGQTYEFEYSFHELAERTLQAPISIFKAVGDDYSFLENSSGYSAEPPTVIDLDADHYSLLREDIGELVKHIRYLLGE
In the case of B1, the activity when freeze-dried is reported as “able to retain activity”.

From US20250003940A1, “BIOSENSOR, BIOSENSOR COMPONENTS, AND USE THEREOF” (VICTORIA LINK LIMITED, priority 2021, published 2025)
